{"source": "patent US20100316636A1", "key": {"[1]": {"biological_target": "recombinant human IL-6R protein, monomeric form (human) (UniProt P08887)", "sequence (P08887 20-358 limits assumed)": "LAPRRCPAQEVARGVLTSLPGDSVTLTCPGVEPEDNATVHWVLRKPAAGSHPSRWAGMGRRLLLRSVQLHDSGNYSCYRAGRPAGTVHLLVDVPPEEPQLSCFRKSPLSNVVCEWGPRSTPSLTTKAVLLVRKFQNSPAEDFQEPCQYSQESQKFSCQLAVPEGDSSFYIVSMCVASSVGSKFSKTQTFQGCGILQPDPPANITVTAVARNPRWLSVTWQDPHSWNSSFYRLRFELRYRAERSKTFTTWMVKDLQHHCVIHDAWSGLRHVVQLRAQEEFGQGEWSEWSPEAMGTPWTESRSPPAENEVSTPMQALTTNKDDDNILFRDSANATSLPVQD", "assay": "SPR (BIAcore), captured antibody, monomeric hIL-6R injected"}, "[2]": {"biological_target": "recombinant human IL-6R protein, monomeric form (human) (UniProt P08887)", "assay": "Kinexa solution-phase competition immunoassay, monomer"}, "[3]": {"biological_target": "human IL-6 receptor on hIL-6-responsive cells (XG-1 myeloma line, HepG2 hepatoma line) (human) (UniProt P08887)", "sequence (P08887 20-468)": "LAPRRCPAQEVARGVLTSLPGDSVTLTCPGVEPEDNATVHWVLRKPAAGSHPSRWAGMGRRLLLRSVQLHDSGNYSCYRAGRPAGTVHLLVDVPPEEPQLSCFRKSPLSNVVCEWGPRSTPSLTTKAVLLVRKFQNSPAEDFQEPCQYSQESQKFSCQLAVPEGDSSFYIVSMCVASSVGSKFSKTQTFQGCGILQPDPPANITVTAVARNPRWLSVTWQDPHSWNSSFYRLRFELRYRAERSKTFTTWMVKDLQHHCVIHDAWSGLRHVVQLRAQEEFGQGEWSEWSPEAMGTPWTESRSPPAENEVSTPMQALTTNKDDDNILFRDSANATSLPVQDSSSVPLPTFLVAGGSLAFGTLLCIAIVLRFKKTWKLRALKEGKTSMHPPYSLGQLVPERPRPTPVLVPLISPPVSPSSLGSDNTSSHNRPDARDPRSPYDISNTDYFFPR", "assay": "cell-based or functional assay"}, "[4]": {"biological_target": "recombinant human IL-6R protein, monomeric form (human) (UniProt P08887)", "assay": "SPR (BIAcore), antibody captured on anti-mouse Fc, monomeric IL-6R 1.25-40 nM injected"}, "[5]": {"biological_target": "recombinant monkey monomeric IL-6R protein (Macaca fascicularis, extracellular domain) (Macaca fascicularis)", "sequence (P08887 other isoform, or with tags, fused parts or gaps)": "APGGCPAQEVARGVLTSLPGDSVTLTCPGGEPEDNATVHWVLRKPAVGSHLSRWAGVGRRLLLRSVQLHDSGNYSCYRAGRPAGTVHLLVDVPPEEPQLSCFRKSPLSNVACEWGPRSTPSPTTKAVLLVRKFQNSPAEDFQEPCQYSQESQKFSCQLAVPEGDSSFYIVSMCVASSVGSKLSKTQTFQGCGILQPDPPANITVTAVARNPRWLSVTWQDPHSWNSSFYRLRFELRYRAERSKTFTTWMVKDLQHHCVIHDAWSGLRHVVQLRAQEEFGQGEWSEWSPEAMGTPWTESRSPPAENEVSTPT", "assay": "SPR (BIAcore), antibody captured on anti-mouse Fc, monomeric IL-6R 1.25-40 nM injected"}, "[6]": {"biological_target": "hIL-6R-hFc (human) (UniProt P08887)", "sequence (P08887 20-358)": "as the sequence (P08887 20-358 limits assumed) above", "assay": "blocking immunoassay: 100 pM hIL-6R-hFc premixed with titrated antibody, free hIL-6R-hFc captured on coated hIL-6"}}, "data": [{"substance": "control: humanized monoclonal antibody to human IL-6R (U.S. Pat. No. 5,817,790 SEQ ID NO:69 and 71)", "values": [{"measurement": "Kd", "setting": "[1]", "value": 1.79, "unit": "nM"}, {"measurement": "Kd", "setting": "[2]", "value": 1.96, "unit": "nM"}, {"measurement": "HepG2/Stat3 Luciferase activity IC50", "setting": "[3]", "value": 0.854, "unit": "nM"}, {"measurement": "XG-1 cell proliferation Inhibition IC50", "setting": "[3]", "value": 1.5, "unit": "nM"}, {"measurement": "Kd", "setting": "[4]", "value": 0.963, "unit": "nM"}, {"measurement": "Kd", "setting": "[5]", "value": 1.17, "unit": "nM"}, {"measurement": "IC50", "setting": "[6]", "value": 2.2, "unit": "nM"}]}]}
